The source of these data is paper PMC10572626, “NMR-Based Characterization of the Interaction between Yeast Oxa1-CTD and Ribosomes” (International Journal of Molecular Sciences, 2023).

In data set [1] the target is C-terminal domain of yeast S. cerevisiae mitochondrial oxidase assembly protein 1 (Oxa1-CTD, W320-K402) (S. cerevisiae) (UniProt P39952). In words: MST; Oxa1-CTD (20 µM, labelled with red fluorescent dye) kept constant; E. coli 70S or BSA titrated 1.21-20,000 nM; 20 mM HEPES pH 7.2, 75 mM NaCl, 20 mM MgCl2; three repeats.
Data set [2] deals with the molecule itself. In words: SEC; Superdex 75 increase 10/300 GL in NMR buffer (20 mM HEPES pH 7.2, 75 mM NaCl, 20 mM MgCl2, 5 mM β-mercaptoethanol); oligomeric state inferred from elution volumes against standards of the column's manual. (In general: SEC sorts molecules by how far they enter the pores of the column.)

A word on the Kd: it is a measure of binding affinity in units of concentration. A lower Kd goes with higher affinity. In data set [1], E. coli 70S ribosome (complex) returned a Kd of 450 nM.

B1: C-terminal domain of yeast S. cerevisiae mitochondrial oxidase assembly protein 1 (Oxa1-CTD, W320-K402) (domain or fragment, UniProt P39952 320-402, looked up)
chain: WVRSKLKITEVAKPRTPIAGASPTENMGIFQSLKHNIQKARDQAERRQLMQDNEKKLQESFKEKRQNSKIKIVHKSNFINNKK
modifications: red fluorescent dye (Monolith NT protein labeling kit) in the MST assay; 15N-labelled in the NMR titration
notes: Oxa1, yeast S. cerevisiae, C-terminal domain, residues W320 to K402 (pI = 10.5); cloned into pET-14b with an N-terminal 6x His-tag and a thrombin cleavage site; also called C-terminus of Oxa1; pET14b-Oxa1-CTD (W320-K402)
The stoichiometry N is a count of units in the complex or per binding partner. With B1, in data set [2], the “stoichiometry N” value is 2.
